# Results as given in patent US7432342B2, “Kinase anchor protein muteins, peptides thereof and related documents” (Sequenom, Inc., priority 2002, dated 2008).
# Read-outs that look alike come from different tables or passages of the source. Ends that are not written are not given here. Peptide text beside a SMILES is read from it.
# What was measured:
# PKA-RIα-GFP = PKA-RIα-GFP (Bos taurus, UniProt P00514); assay: Surface plasmon resonance (BIAcore CM5 chips); type: binding
# Procedure: Two 27-mer peptides representing the Ile and Val variants (SEQ ID NOs:1 and 2, respectively) were synthesized and purified in milligram quantities and the affinity to PKA-RIα-GFP was determined using well-known surface plasmon resonance in combination with BIAcore chips (see, e.g., Current Opinion in Biotechnology (1997) 8:50-57; Current Opinion in Biotechnology (1994) 5:389-395; Current Opinion in Biotechnology (1994) 5:65-71; Structure (1995) 3:969; Current Biology (1995) pp. 699-705; Analytical Biochemistry (1991) 201:197-210; and macinfac.bio.unc.edu/biacore.html). PKA-RIα-GFP was coupled to BIAcore CM5 chips. BSA was immobilized on control chips.
# The affinities in this assay are lower compared to those determined by fluorescence anisotropy. The most likely reason is that in this study the signal difference between the flow cell with the regulatory subunit and the control protein BSA was measured, such that slight unspecific binding to BSA directly reduces the apparent affinity. However, similar to previous results, an affinity difference of PKA-RIα-GFP to both allelic 27-mer peptides was observed (Table 6).
# RIα = RIα (Bos taurus, UniProt P00514); assay: Fluorescence anisotropy binding of labeled 27-mer AKB Ile/Val peptides (Example 2); details: in vitro; 10 nM labeled peptide
# Chain of RIα (P00514 whole entry, the tested form may be a part, canonical isoform): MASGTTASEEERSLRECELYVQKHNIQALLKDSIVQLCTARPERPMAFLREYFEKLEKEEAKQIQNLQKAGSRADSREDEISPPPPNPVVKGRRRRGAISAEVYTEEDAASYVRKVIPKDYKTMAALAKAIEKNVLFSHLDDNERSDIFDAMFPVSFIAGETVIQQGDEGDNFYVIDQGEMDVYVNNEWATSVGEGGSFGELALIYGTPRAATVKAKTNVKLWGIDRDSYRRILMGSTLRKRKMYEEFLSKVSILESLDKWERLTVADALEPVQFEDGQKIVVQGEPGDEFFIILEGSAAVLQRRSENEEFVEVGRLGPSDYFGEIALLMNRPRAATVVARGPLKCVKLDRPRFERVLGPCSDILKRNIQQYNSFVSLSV
# Procedure: To assess the magnitude of the affinity difference, binding of both Ile/Val variants to the R-subunit isoforms of PKA was analyzed in a quantitative assay. Twenty-seven residue peptides containing the two AKB domain Ile/Val variants (SEQ ID NOs:1 and 2, respectively) of D-AKAP2 with a C-terminal cysteine were synthesized by SynPep Corporation (Dublin, Calif.). The peptides were HPLC (high performance liquid chromatography) purified and mass spectrometry checked. Both peptides were labeled with tetramethyl rhodamine-5-maleiamide (Molecular Probes, Eugene, Oreg.) at the cysteine residue and HPLC purified. Increasing concentrations of RIα and RIIβ, respectively, were equilibrated with 10 nM of peptide for at least one hour at room temperature in 10 mM HEPES, 150 mM NaCl, 3 mM EDTA, 0.005% polysorbate 20. […] Fluorescence anisotropy was monitored using a Fluoromax-2 (Spex, Jobin Yvon Horiba, Edison, N.J.) equipped with polarizers. The fluorophore was excited at 541 nm (5-10 nm bandpass) and emission was monitored at 575 nm (5-10 nm bandpass). […]
# Peptides of each AKB Ile/Val variant (SEQ ID NOs:1 and 2) were synthesized and fluorescence-labeled. Binding of the labeled peptides to the regulatory subunit isoforms was monitored using a fluorescence assay in which binding of the peptide was proportional to an increase in steady state anisotropy. […]
# RIα isoform of PKA = RIα isoform of PKA (Bos taurus, UniProt P00514); assay: In vitro pull-down assay of GST-fused AKB domain variants (Example 1); type: binding; details: GST fusion of 40 C-terminal residues of D-AKAP2; RIα 20 μM; mouse and human AKB domains
# Chain of RIα isoform of PKA (P00514 whole entry, the tested form may be a part, canonical isoform): as above
# Source text: Binding of each AKB domain variant to PKA was first examined using an in vitro pull-down assay, in which the 40 C-terminal residues of D-AKAP2 (amino acids 623-662 of SEQ ID NO:64) containing the AKB were fused to glutathione-S-transferase (GST). The GST fusion constructs were made by fusing the 40 C-terminal amino acids of D-AKAP2 to the C-terminus of GST and subcloning between the NdeI and BamHI sites of pRSET (Invitrogen, Carlsbad, Calif.). The constructs were transfected into BL21 cells and expressed for 6 hours at 20° C. The cells were lysed in PBS with 5 mM BME and 0.1% Triton X-100. 3 μl of supernatant were added to 200 μl of this buffer and 10 μl glutathione beads. After three washes, RIα (53 μg, 20 μM) and RIIα (2.4 μg, 2 μM) were added to the beads, respectively, and the total volume was adjusted to 40 μl. After incubating for 30 min at 4° C., the beads were washed three times, and separated in a 10% acrylamide gel.
# RIα-D/D-GFP = molecular target: T1, RIα-D/D-GFP (Bos taurus, UniProt P00514); assay: Co-localization of PKA regulatory domain with mitochondria-targeted AKB domain in 10T(1/2) cells (Example 3); type: cell-based; details: C-terminal 156 residues of D-AKAP2 fused to D-AKAP1 mitochondrial anchoring domain
# T1 construct: The dimerization/docking (D/D) domain of RIα and full-length RIIα were each fused with green fluorescent protein (GFP); expressed in transfected cells; host or cells: 10T(1/2) cells
# T1 sequence (P00514 2-135 limits assumed): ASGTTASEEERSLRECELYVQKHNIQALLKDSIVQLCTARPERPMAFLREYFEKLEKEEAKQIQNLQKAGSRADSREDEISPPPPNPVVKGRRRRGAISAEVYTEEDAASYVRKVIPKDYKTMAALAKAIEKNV
# Source text: The 30 amino acid mitochondrial anchoring domain of D-AKAP1 (Chen et al. (1997) J. Biol. Chem., 272:15247-57; and Huang et al. (1997) J. Biol. Chem., 272:8057-8064) was fused to the C-terminal 156 residues of mouse (amino acids 217-372 of SEQ ID NO:55) and human (amino acids 507-662 of SEQ ID NO:64) D-AKAP2, respectively, followed by a Flag-tag and subcloned into pcDNA4 (Invitrogen, Carlsbad, Calif.). The dimerization/docking (D/D) domain of RIα and full-length RIIα were each fused with green fluorescent protein (GFP) and cloned into pEGFPN1 (Clontech, Palo Alto, Calif.). […] The AKB domain was detected by immuno-staining with monoclonal antibodies against the Flag-tag (Kodak, Rochester, N.Y.) followed by rhodamine-conjugated secondary antibody (Jackson Lab, Bar Harbor, Me.). […]
# In this assay, the AKB domain within the C-terminal 156 residues of D-AKAP2 from mouse (Val) and human (Ile) was fused to the mitochondrial anchoring domain from D-AKAP1 and tethered to the outer mitochondrial membrane (Chen et al. (1997) J. Biol. Chem., 272:15247-15257; and Huang et al. (1997) J. Biol. Chem., 272:8057-8064). The binding of the AKB domain with the PKA regulatory domains was detected as the co-transfected PKA regulatory domains co-localized to the mitochondria. […]
# PKA-RIIα-GFP = PKA-RIIα-GFP (Mus musculus, UniProt P12367); assay: ELISA of biotinylated 27-mer peptide immobilized on neutravidin plates; type: binding; details: 25 μM peptide on neutravidin; 0-5 μg/ml PKA-RIIα-GFP
# Chain of PKA-RIIα-GFP (P12367 1-46): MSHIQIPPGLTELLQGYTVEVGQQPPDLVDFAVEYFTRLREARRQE
# Procedure: The peptide biotin-bA-bA-[…] (SEQ ID NO:14) was synthesized as a C-terminal amide in milligram quantity and purified to a 96% purity by HPLC. Its identity was confirmed by MALDI TOF (matrix-assisted laser desorption ionization time-of-flight) mass spectrometry. The peptide was immobilized in neutravidin (NA)-coated 96-well microtiter plates and incubated with various concentrations of PKA-RIIα-GFP. Binding was detected using an anti-GFP antibody (3E6, Quantum Biotechnologies, QBiogene, Carlsbad, Calif.) in combination with a second horseradish peroxidase labeled antibody. Microtiterplates were coated with 40 μg/ml Neutravidin (NA) and subsequently incubated with 25 μM peptide. Various concentrations (0-5 μg/ml) of PKA-RIIα-GFP were added. Bound subunit was detected using a mouse anti-GFP antibody (1 μg/ml) and an anti-mouse-IgG-antibody labeled with peroxidase (1 μg/ml). Negative controls were utilized that contained either a microtiter plate with only neutravidine or only peptide, or neither one.
# Chain of PKA-RIα-GFP (P00514 1-109 limits assumed): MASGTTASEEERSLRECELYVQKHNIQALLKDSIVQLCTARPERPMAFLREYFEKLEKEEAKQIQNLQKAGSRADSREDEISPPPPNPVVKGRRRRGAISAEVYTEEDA
molecule,measurement,setting,value
CC[C@H](C)[C@H](NC(=O)[C@H](CCCCN)NC(=O)[C@H](Cc1c[nH]c2ccccc12)NC(=O)[C@H](C)NC(=O)[C@H](CC(C)C)NC(=O)[C@H](CCC(=O)O)NC(=O)[C@H](CCC(=O)O)NC(=O)[C@H](CCC(N)=O)NC(=O)[C@H](C)NC(=O)[C@H](CCC(=O)O)NC(=O)[C@H](CC(=O)O)NC(=O)[C@@H](NC(=O)[C@H](CC(N)=O)NC(=O)CNC(=O)[C@H](CCC(N)=O)NC(=O)[C@@H](NC(C)=O)C(C)C)[C@@H](C)O)C(=O)N[C@@H](C)C(=O)N[C@@H](CCCCN)C(=O)N[C@@H](CCSC)C(=O)N[C@H](C(=O)N[C@H](C(=O)N[C@@H](CO)C(=O)N[C@@H](CC(=O)O)C(=O)N[C@H](C(=O)N[C@@H](CCSC)C(=O)N[C@@H](CCC(N)=O)C(=O)N[C@@H](CCC(N)=O)C(N)=O)C(C)C)C(C)C)[C@@H](C)CC [SEQ ID NO:15] (Ac-VQGNTDEAQEELAWKIAKMIVSDVMQQ-NH2),Kd,PKA-RIα-GFP,500 nM
CC[C@H](C)[C@H](NC(=O)[C@H](CCCCN)NC(=O)[C@H](Cc1c[nH]c2ccccc12)NC(=O)[C@H](C)NC(=O)[C@H](CC(C)C)NC(=O)[C@H](CCC(=O)O)NC(=O)[C@H](CCC(=O)O)NC(=O)[C@H](CCC(N)=O)NC(=O)[C@H](C)NC(=O)[C@H](CCC(=O)O)NC(=O)[C@H](CC(=O)O)NC(=O)[C@@H](NC(=O)[C@H](CC(N)=O)NC(=O)CNC(=O)[C@H](CCC(N)=O)NC(=O)[C@@H](NC(C)=O)C(C)C)[C@@H](C)O)C(=O)N[C@@H](C)C(=O)N[C@@H](CCCCN)C(=O)N[C@@H](CCSC)C(=O)N[C@H](C(=O)N[C@H](C(=O)N[C@@H](CO)C(=O)N[C@@H](CC(=O)O)C(=O)N[C@H](C(=O)N[C@@H](CCSC)C(=O)N[C@@H](CCC(N)=O)C(=O)N[C@@H](CCC(N)=O)C(N)=O)[C@@H](C)CC)C(C)C)[C@@H](C)CC [SEQ ID NO:16] (Ac-VQGNTDEAQEELAWKIAKMIVSDIMQQ-NH2),Kd,"PKA-RIα-GFP; PKA-RIα-GFP coupled to chip (1681 RU), BSA control chip, read-out: PKA-RIα-GFP binding affinity",860 nM
VQGNTDEAQEELAWKIAKMIVSDVMQQ (not fully specified (N-terminus); listed as Homo sapiens) [SEQ ID NO:2],binding affinity to RIα compared to the Ile variant,RIα,nearly three-fold increase in binding affinity
"Val variant: D-AKAP2 AKB domain with Val at amino acid 646 (SEQ ID NO:65), tested as GST fusion or mitochondria-targeted fusion construct (VQGNTDEAQEELAWKIAKMIVSDVMQQAQYDQPLEKSTKL; not fully specified)",binding of the RIα isoform of PKA to the AKB variant,RIα isoform of PKA,significantly higher affinity
same,binding affinity to RIα compared to the Ile variant,RIα,three-fold tighter
same,targeting of RIα to the mitochondria,RIα-D/D-GFP,effectively targeted RIα to the mitochondria
biotin-bA-bA-VQGNTDEAQEELAWKIAKMIVSDIMQQ [SEQ ID NO:14],binding to PKA-RIIα in ELISA,PKA-RIIα-GFP,able to bind to PKA-RIIα
